From PMC2794542 come the findings set out here.

The target in the assay is full length LRRK2, FLAG-tagged and V5-tagged copies co-expressed (human) (UniProt Q5S007). Kind of assay: co-IP; 293T cells co-transfected with FLAG- and V5-LRRK2; gel filtration fractions 20-23 (α-complex, ~600 kDa) pooled, immunoprecipitated with anti-FLAG, blotted with anti-FLAG and anti-V5, densitometry. Particulars: remark: other sources report otherwise.

“full length LRRK2, FLAG-tagged and V5-tagged copies co-expressed, Q5S007 1-2527”: the ratio of FLAG-LRRK2 to V5-LRRK2 in the anti-FLAG IP was 1.87 and the stoichiometry N is 2.
